Data from PMC11320570 (2024).

Experiments:
Experiment in all cases: ELISA
R2N_1G11 = target: R2N_1G11
R3N_2D3 = target: R3N_2D3
[1] = target: T1, DENV-2 EDIII wild-type Fc-fusion antigen (dengue virus serotype 2 (DENV-2), …)
T1 chain: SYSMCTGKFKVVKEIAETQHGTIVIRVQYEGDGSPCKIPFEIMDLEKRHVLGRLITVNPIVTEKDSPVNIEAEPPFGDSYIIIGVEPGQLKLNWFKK

[2] = target: soluble E80 protein of DENV-1 (dengue virus serotype 1 (DENV-1))
[3] = target: soluble E80 protein of DENV-3 (dengue virus serotype 3 (DENV-3))
[4] = target: soluble DENV-2 envelope protein (D2E80) (dengue virus serotype 2 (DENV-2), …)

B1: soluble E80 protein of DENV-4 (domain or fragment)
chain: MRCVGVGNRDFVEGVSGGAWVDLVLEHGGCVTTMAQGKPTLDFELIKTTAKEVALLRTYCIEASISNITTATRCPTQGEPYLKEEQDQQYICRRDVVDRGWGNGCGLFGKGGVVTCAKFSCSGKITGNLVQIENLEYTVVVTVHNGDTHAVGNDIPNHGVTATITPRSPSVEVKLPDYGELTLDCEPRSGIDFNEMILMKMKKKTWLVHKQWFLDLPLPWAAGADTSEVHWNYKERMVTFKVPHAKRQDVTVLGSQEGAMHSALTGATEVDSGDGNHMFAGHLKCKVRMEKLRIKGMSYTMCSGKFSIDKEMAETQHGTTVVKVKYEGAGAPCKVPIEIRDVNKEKVVGRIISSTPFAEYTNSVTNIELEPPFGDSYIVIGVGDSALTLHWFRKG
- Kd (R2N_1G11): > 67 nM
- Kd (R3N_2D3): 0.32 nM

B2: 513 engineered and humanized antibody (antibody, V domains shown)
VH: QVQLVQSGAEVKKPGASVKVSCKAGFNIKDVYMSWVRQAPEQGLEWMGRIDPENGDTKYDPKLQGRVTMTADTSTNTAYMELRSLRSDDTAVYYCARGWEGFAYWGQGTLVTVSS
VL: DIVMTQSPASLAVSLGQRATISCRASENVDKYGNSFMHWYQQKPGQPPKLLIYRASELQWGVPDRFSGSGSGTDFTLTISSLQAEDVAVYYCQRSNEVPWTFGQGTKLEIK
- Kd [1]: 0.066 nM
- Kd [2]: 0.054 nM
- Kd [3]: 0.46 nM
- Kd [4]: 0.087 nM

B3: 2H12 mouse antibody (antibody, V domains shown)
VH: DVQLVEPGAELVQPGASVKMSCKASGYTFSSYWINWEKQRPGKGLEWIGNIYPGSGTVNYDDKFKSKATLTIDTSSNTAYMQLSSLTSEDSAVYYCTRGGSHAMDYWGQGTSVTVSS
VL: DIVMTQSQKFMSTSVGDRVSITCKASQNVRTSVAWYQQKPGQSPKALIYLASNRHTGVPDRFTGSGSGTDFTLTISNVQSEDLADYFCLQHWTYPYTFGGGTKLEIK
- Kd [1]: 0.39 nM

B4: 2C8 mouse antibody (antibody, V domains shown)
VH: EVKLVESGGGLVQPGGSLSLSCAASGFTFTDYYMTWVRQPPGKALEWLALIRNKASGYTTEYSASVKGRFTISRDNSQSILYLQMNALRAEDSATYYCTRAKWDGHYFDYWGQGTTLTVSS
VL: DIQMTQSPASLSVSVGETVTITCRATKNIYNNLAWYQQKQGRSPQLLVYAATNLADGVPSRFSGSGSGTQFSLRINSLQSEDFGNYYCQHFWHTPWTFGGGTKLEIK
- Kd [1]: 0.22 nM

B5: 3H5 mouse antibody (antibody, V domains shown)
VH: QVQLQQSGAEVARPGASVKLSCKASGYTFTSYWLQWVKQRPGQGLEWIGAIWPGDDDTRYAQKFQGKATMTADKSSSTAYIQLSNLASEDSAVYYCARKGGFAMDYWGQGTSVTVSS
VL: NIVMTQSPTSLAVSLGQRATISCRASESVDSFGKSFMHFYQQKPGQPPKLLIHLASNLESGVPARFTGRGSRTDFTLTIDPVEADDAATYYCQQNNEVPFTFGSGTKLEVK
- Kd [1]: 1.06 nM
